Assay [1] deals with beta-catenin (human). The assay can be described thus: cell-based or functional assay.
Assay [2] deals with beta-catenin (human). The assay can be described thus: fluorescence polarization. In general terms: In fluorescence polarisation assays a small probe gives low polarisation when free and higher when bound to something large.

The values below come from patent US20260207704A1, “STAPLED PEPTIDES AND METHODS THEREOF” (priority 2022, published 2026).

*1 amine or outer side, *2 acyl side, *3 side chain or, on linkers, in order; H or OH if unused. Bridges are numbered along the chain shown (N, C = ends). Primed or numbered codes have the meaning given here. [ ]: non-standard residue; d: D form. PyrS2(6) = (S)-3-amino-1-((pent-4-en-1-yloxy)carbonyl)pyrrolidine-3-carboxylic acid, stapled with another olefin-containing amino acid residue through the olefin group, O=C(OCCCC=[*:3])N1CC[C@@](N[*:1])(C(=O)[*:2])C1; B5(4) = 2-amino-2-(pent-4-en-1-yl)hept-6-enoic acid, stapled through each of its two olefin groups with other olefin-containing amino acid residues, O=C(C(CCCC=[*:3])(CCCC=[*:4])N[*:1])[*:2]; PyrS2″ = (S)-3-amino-1-((pent-4-en-1-yloxy)carbonyl)pyrrolidine-3-carboxylic acid (olefin stapling residue), C=CCCCOC(=O)N1CC[C@@](N[*:1])(C(=O)[*:2])C1; PyrS2 = (S)-3-amino-1-((pent-4-en-1-yloxy)carbonyl)pyrrolidine-3-carboxylic acid, olefin staple residue, C=CCCCOC(=O)N1CC[C@@](N[*:1])(C(=O)[*:2])C1; PyrS2(5) = (S)-3-amino-1-((pent-4-en-1-yloxy)carbonyl)pyrrolidine-3-carboxylic acid, C=CCCCOC(=O)N1CC[C@@](N[*:1])(C(=O)[*:2])C1; B5(5) = 2-amino-2-(pent-4-en-1-yl)hept-6-enoic acid (two olefin arms), C=CCCCC(CCCC=C)(N[*:1])C(=O)[*:2]; 2F3MeF″ = aromatic residue, Cc1cccc(C[C@H](N[*:1])C(=O)[*:2])c1F; Phe(3-COOH) = N[C@@H](Cc1cccc(C(=O)O)c1)C(=O)O; 2F3MeF = Cc1cccc(C[C@H](N[*:1])C(=O)[*:2])c1F; Bta = N[C@@H](Cc1csc2ccccc12)C(=O)O; αAllylPro = C=CC[C@@]1(C(=O)O)CCCN1; BztA = aromatic amino acid residue; tBuAla = CC(C)(C)C[C@H](N)C(=O)O; Gly(cBu) = N[C@H](C(=O)O)C1CCC1; 3Thi = N[C@@H](Cc1ccsc1)C(=O)O; BztA″ = aromatic residue; CyLeu = not defined here; Nle = CCCC[C@H](N)C(=O)O; TfeGA = not defined here; GlnR = not defined here; Cpg = not defined here; PL3 = not defined here; B5 = not defined here; Aib = CC(C)(N)C(=O)O

What is called IC50 is the concentration that inhibits the measured activity by half. A lower IC50 goes with greater potency.

Sequence of beta-catenin (human) (B6V8E6 146-665 limits assumed): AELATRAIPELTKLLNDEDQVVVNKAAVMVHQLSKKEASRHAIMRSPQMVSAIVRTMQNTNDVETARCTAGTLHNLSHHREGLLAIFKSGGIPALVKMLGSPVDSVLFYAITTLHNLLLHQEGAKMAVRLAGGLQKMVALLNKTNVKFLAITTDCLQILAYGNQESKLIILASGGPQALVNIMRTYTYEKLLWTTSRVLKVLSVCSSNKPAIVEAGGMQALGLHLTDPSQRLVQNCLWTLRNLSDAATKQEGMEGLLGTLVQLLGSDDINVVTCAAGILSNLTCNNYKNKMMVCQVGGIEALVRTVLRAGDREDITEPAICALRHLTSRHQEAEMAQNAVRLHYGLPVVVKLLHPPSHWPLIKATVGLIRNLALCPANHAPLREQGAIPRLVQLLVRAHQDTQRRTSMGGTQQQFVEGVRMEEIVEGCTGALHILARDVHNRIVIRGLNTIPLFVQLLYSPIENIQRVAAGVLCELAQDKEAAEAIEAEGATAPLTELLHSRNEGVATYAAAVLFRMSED

B1: I-140 (peptide)
peptide: Ac-[αAllylPro]D[tBuAla][B5]D[Phe(3-COOH)][Gly(cBu)]AFK[PyrS2″][2F3MeF″][BztA″][GlnR]LS-NH2
modifications: bridge 10-14; not fully specified (bridges); printed as Ac-PL3-Asp-Npg-B5-Asp-3COOHF-Cbg-Ala-Phe-Lys*3-PyrS2-2F3MeF-BztA-GlnR*3-Leu-Ser-NH2; reading uncertain; also: Lys10 and GlnR14 marked *3
For B1, the NanoBRET Abs IC50 in assay [1] is < 1.5 µM. Besides, the IC50 in assay [2] was < 50 nM.

B2: I-88 (peptide)
peptide: Ac-[PL3]N[tBuAla][B5]D[Phe(3-COOH)]QAFK[PyrS2″][3Thi][BztA][GlnR]A-NH2
modifications: staple 1-4 (inferred); bridge 10-14; not fully specified (residue 10, bridges); printed as Ac-PL3-Asn-Npg-B5-Asp-3COOHF-Gln-Ala-Phe-Lys*3-PyrS2-3Thi-BztA-GlnR*3-Ala-NH2; reading uncertain; also: Lys10 and GlnR14 marked *3
Consider B2, for which the IC50 in assay [2] is < 50 nM.

B3: I-4 (peptide)
peptide: Ac-[αAllylPro]DL[B5(5)]DDAAFK[PyrS2(5)][3Thi][Bta][GlnR]-NH2
modifications: bridge 10-14; not fully specified (bridges); printed as Ac-PL3-Asp-Leu-B5-Asp-Asp-Ala-Ala-Phe-Lys*3-PyrS2-3Thi-BztA-GlnR*3-NH2; reading uncertain
With B3, the NanoBRET Abs IC50 in assay [1] was > 10 µM. Moreover, the IC50 in assay [2] is < 50 nM.

B4: I-135 (peptide)
peptide: Ac-[αAllylPro]D[tBuAla][B5]D[Phe(3-COOH)][GlnR](29N2spiroundecane)AFL[PyrS2][2F3MeF][Bta][GlnR]A-NH2
modifications: staple 1-4, 4-11 (inferred); not fully specified; printed as Ac-PL3-Asp-Npg-B5-Asp-3COOHF-[29N2spiroundecane]GlnR-Ala-Phe-Leu-PyrS2-2F3MeF-BztA-GlnR-Ala-NH2; reading uncertain; also: staple C=C reduced to CH2-CH2
In the case of B4, the NanoBRET Abs IC50 in assay [1] is > 10 µM. In addition, the IC50 in assay [2] is > 1000 nM.

B5: I-137 (peptide)
peptide: Ac-[αAllylPro]D[tBuAla][B5]D[Phe(3-COOH)][Nle]AFK[PyrS2″][2F3MeF″][BztA″][GlnR]LS-NH2
modifications: bridge 10-14; not fully specified (bridges); printed as Ac-PL3-Asp-Npg-B5-Asp-3COOHF-nLeu-Ala-Phe-Lys*3-PyrS2-2F3MeF-BztA-GlnR*3-Leu-Ser-NH2; reading uncertain; also: Lys10 and GlnR14 marked *3
In the case of B5, the NanoBRET Abs IC50 (bin >1.5 uM) in assay [1] was < 3 µM. Besides, the IC50 in assay [2] is < 50 nM.

B6: I-126 (peptide)
peptide: Ac-[αAllylPro]D[tBuAla][B5(4)]D[TfeGA]AAFK[PyrS2″][2F3MeF][Bta][GlnR][Aib]-NH2
modifications: bridge 10-14; not fully specified (bridges); reading uncertain; also: Lys*3 and GlnR*3 marked *3
Consider B6, for which the NanoBRET Abs IC50 (bin >3.0 uM) in assay [1] was < 10 µM. Also, the IC50 in assay [2] was < 50 nM.

B7: I-129 (peptide)
peptide: Ac-[αAllylPro]D[tBuAla][B5(4)]D[TfeGA]AAFK[PyrS2(5)][2F3MeF][Bta][GlnR]V-NH2
modifications: bridge 10-14; not fully specified (bridges); reading uncertain; also: Lys*3 and GlnR*3 marked *3
For B7, in assay [1], the NanoBRET Abs IC50 (bin >3.0 uM) is < 10 µM. The IC50 in assay [2] is < 50 nM.

B8: I-82 (peptide)
peptide: Ac-[PL3]D[tBuAla][B5]N[Phe(3-COOH)]AAFK[PyrS2″][3Thi][BztA][GlnR]A-NH2
modifications: staple 1-4 (inferred); bridge 10-14; not fully specified (residue 10, bridges); printed as Ac-PL3-Asp-Npg-B5-Asn-3COOHF-Ala-Ala-Phe-Lys*3-PyrS2-3Thi-BztA-GlnR*3-Ala-NH2; reading uncertain
On to B8, for which, in assay [2], the IC50 is < 50 nM.

B9: I-124 (peptide)
peptide: Ac-[αAllylPro]D[tBuAla][B5(4)]D[TfeGA]VAFK[PyrS2″][2F3MeF][Bta][GlnR]A-NH2
modifications: bridge 10-14; not fully specified (bridges); reading uncertain; also: Lys*3 and GlnR*3 marked *3
As for B9, in assay [1], the NanoBRET Abs IC50 is > 10 µM. Also, the IC50 in assay [2] is < 50 nM.

B10: I-138 (peptide)
peptide: Ac-[αAllylPro]D[tBuAla][B5]D[Phe(3-COOH)][Aib]AFK[PyrS2″][2F3MeF″][BztA″][GlnR]LS-NH2
modifications: bridge 10-14; not fully specified (bridges); printed as Ac-PL3-Asp-Npg-B5-Asp-3COOHF-Aib-Ala-Phe-Lys*3-PyrS2-2F3MeF-BztA-GlnR*3-Leu-Ser-NH2; reading uncertain; also: Lys10 and GlnR14 marked *3
Turning to B10, the NanoBRET Abs IC50 (bin >1.5 uM) in assay [1] is < 3 µM. In addition, in assay [2], the IC50 was < 50 nM.

B11: I-84 (peptide)
peptide: Ac-[PL3]N[tBuAla][B5]D[Phe(3-COOH)]SAFK[PyrS2″][3Thi][BztA][GlnR]A-NH2
modifications: staple 1-4 (inferred); bridge 10-14; not fully specified (residue 10, bridges); printed as Ac-PL3-Asn-Npg-B5-Asp-3COOHF-Ser-Ala-Phe-Lys*3-PyrS2-3Thi-BztA-GlnR*3-Ala-NH2; reading uncertain
Consider B11, for which the half-maximal inhibitory concentration (IC50) in assay [2] is < 50 nM.

B12: I-127 (peptide)
peptide: Ac-[αAllylPro]D[tBuAla][B5(4)]D[TfeGA]AAFK[PyrS2″][2F3MeF][Bta][GlnR][Aib]-NH2
modifications: bridge 10-14; not fully specified (bridges); reading uncertain; also: Lys*3 and GlnR*3 marked *3
As to B12, the NanoBRET Abs IC50 (bin >3.0 uM) in assay [1] was < 10 µM. The IC50 in assay [2] was < 50 nM.

B13: I-144 (peptide)
peptide: Ac-[αAllylPro]N[tBuAla][B5]D[Phe(3-COOH)][Aib]AFK[PyrS2″][2F3MeF″][BztA″][GlnR]LS-NH2
modifications: bridge 10-14; not fully specified (bridges); printed as Ac-PL3-Asn-Npg-B5-Asp-3COOHF-Aib-Ala-Phe-Lys*3-PyrS2-2F3MeF-BztA-GlnR*3-Leu-Ser-NH2; reading uncertain; also: Lys10 and GlnR14 marked *3
As to B13, the NanoBRET Abs IC50 (bin >3.0 uM) in assay [1] was < 10 µM. In addition, in assay [2], the IC50 is < 50 nM.

B14: I-136 (peptide)
peptide: Ac-[αAllylPro]D[tBuAla][B5]D[Phe(3-COOH)]AAFK[PyrS2″][2F3MeF″][BztA″][GlnR]LS-NH2
modifications: bridge 10-14; not fully specified (bridges); printed as Ac-PL3-Asp-Npg-B5-Asp-3COOHF-Ala-Ala-Phe-Lys*3-PyrS2-2F3MeF-BztA-GlnR*3-Leu-Ser-NH2; reading uncertain; also: Lys10 and GlnR14 marked *3
B14: the NanoBRET Abs IC50 (bin >1.5 uM) in assay [1] was < 3 µM. In addition, in assay [2], the IC50 is < 50 nM.

B15: I-5 (peptide)
peptide: XDLXDDAAFQXXXK
modifications: not fully specified; Ac-PL3-Asp-Leu-B5-Asp-Asp-Ala-Ala-Phe-DGlnR*3-PyrS2-3Thi-BztA-Lys*3-NH2
Consider B15, for which, in assay [1], the NanoBRET Abs IC50 is > 10 µM. Further, the IC50 in assay [2] is < 50 nM.

B16: I-122 (peptide)
peptide: Ac-[αAllylPro]D[tBuAla][B5(4)]D[TfeGA]LAFK[PyrS2″][2F3MeF][Bta][GlnR]A-NH2
modifications: bridge 10-14; not fully specified (bridges); reading uncertain; also: Lys*3 and GlnR*3 marked *3
For B16, in assay [1], the NanoBRET Abs IC50 is > 10 µM. Further, the IC50 in assay [2] is < 50 nM.

B17: I-141 (peptide)
peptide: Ac-[αAllylPro]D[tBuAla][B5]D[Phe(3-COOH)][CyLeu]AFK[PyrS2″][2F3MeF″][BztA″][GlnR]LS-NH2
modifications: bridge 10-14; not fully specified (bridges); printed as Ac-PL3-Asp-Npg-B5-Asp-3COOHF-CyLeu-Ala-Phe-Lys*3-PyrS2-2F3MeF-BztA-GlnR*3-Leu-Ser-NH2; reading uncertain; also: Lys10 and GlnR14 marked *3
As for B17, the NanoBRET Abs IC50 (bin >1.5 uM) in assay [1] is < 3 µM. Also, the IC50 in assay [2] is < 50 nM.

B18: I-139 (peptide)
peptide: Ac-[αAllylPro]D[tBuAla][B5]D[Phe(3-COOH)][Cpg]AFK[PyrS2″][2F3MeF″][BztA″][GlnR]LS-NH2
modifications: bridge 10-14; not fully specified (bridges); printed as Ac-PL3-Asp-Npg-B5-Asp-3COOHF-Cpg-Ala-Phe-Lys*3-PyrS2-2F3MeF-BztA-GlnR*3-Leu-Ser-NH2; reading uncertain; also: Lys10 and GlnR14 marked *3
For B18, the NanoBRET Abs IC50 (bin >1.5 uM) in assay [1] is < 3 µM. The IC50 in assay [2] was < 50 nM.

B19: I-125 (peptide)
peptide: Ac-[αAllylPro]D[tBuAla][B5(4)]D[TfeGA]VAFK[PyrS2″][2F3MeF][Bta][GlnR]A-NH2
modifications: bridge 10-14; not fully specified (bridges); reading uncertain; also: Lys*3 and GlnR*3 marked *3
On to B19, for which the NanoBRET Abs IC50 in assay [1] was > 10 µM. In assay [2], the IC50 was < 50 nM.

B20: I-3 (peptide)
peptide: Ac-[αAllylPro]DL[B5(4)]DDAAFK[PyrS2(6)][3Thi][Bta][GlnR]-NH2
modifications: bridge 10-14; not fully specified (bridges); printed as Ac-PL3-Asp-Leu-B5-Asp-Asp-Ala-Ala-Phe-Lys*3-PyrS2-3Thi-BztA-GlnR*3-NH2; reading uncertain
As for B20, the NanoBRET Abs IC50 (bin >3.0 uM) in assay [1] was < 10 µM. In addition, the IC50 in assay [2] is < 50 nM.
